{"source": "the nanobody polyreactivity screen of Harvey et al. (2022)", "assay": "yeast display, Sf9 membrane polyspecificity reagent, FACS + sequencing; frameworks hold sequencing errors", "in_short": "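Using colony PCR, genes from sorted yeast display clones were amplified, then sequenced on MiSeq at 2 × 250 and filtered by CDR length. The clones had been stained with 10% biotinylated, detergent-solubilized Sf9 membrane reagent for 1 hour at 4 °C and sorted by FACS into low and high (top ~1%) gates on anti-HA and streptavidin fluorescence. Polyreactivity labels come from the gate of origin.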", "data": [{"sequence": "QVQLLESGGGLVQAGGSLRLSCAASGFIFKGNAMGWYRQAPGKERELVAAITNRGGGTYYADSVKGRFTISRDNAKNTVYLLMNSLKPEDTAVYYCAKAYTLPFHPYDYWGQGTQVTVSS", "values": [{"measurement": "polyreactivity (PSR sort gate)", "value": "high polyreactivity"}]}, {"sequence": "QGQLVESGGGLVQAGGSLRLSCAASGFIFVPYAMGWYRQAPGKEREFVAAITASGGNTYYADSVKGRFTISRDNAKNTVYLQMNSLKPEYTAVYYCAAEISGSLESLDYWGQGTQVTVSS", "values": [{"measurement": "polyreactivity (PSR sort gate)", "value": "low polyreactivity"}]}, {"sequence": "QVQLVASGGGLVQSGGSLRLSCAASGFIFAYYAMGWYRQAPGTERELVAAISRGGRPYYADSVKGRFTISRDNAKNTVYFQMNSLKPEDTAVYYCAARRWRRYQSGGSYSGMDHWGQGTQVTVSS", "values": [{"measurement": "polyreactivity (PSR sort gate)", "value": "high polyreactivity"}]}, {"sequence": "QVQLVESGGGLVQAGGSLRLSCAASGSTLVGNTMGWYRQAPGKERELVAAITGVGSRNYADSVKGRFTISRDNAKNTVYLQMNSLKPEDTALYYCAAETWYSVLWEEGYDYWGHGTQVTVSS", "values": [{"measurement": "polyreactivity (PSR sort gate)", "value": "low polyreactivity"}]}, {"sequence": "QVQLVESGGGLVQAGGSLRLSCAASGNTLGYNAMGWYRKAPGKERELVATIRGSGGITYYADSVKGRFTISRDNAKNTVYLQMNSLKPEDTAVDYCAKVYKYRVKGDHWGQGTQVTVSS", "values": [{"measurement": "polyreactivity (PSR sort gate)", "value": "low polyreactivity"}]}, {"sequence": "QVQLVESGGGLVQAGGSLRLSCAASGSIFFTNAKGLSRQAPGKERELVAAITSSGTRTYYADSVKGRFTISRDNAKNTVYLQKNSLKPEDTAVYYCAVEVQYKYDYSHTYRYYYWGQGSQVTVSS", "values": [{"measurement": "polyreactivity (PSR sort gate)", "value": "high polyreactivity"}]}, {"sequence": "QVQLVESGGGLVQAGGSLRLSCAASGSMFVTNALGWYRQAPGTERELVAAMSVSGGSTYYADSVKGRFTISRDNAKNTVDLQMNSLKPEDTAVYYCNTVRSPPGHDYWGQGTQVTVSS", "values": [{"measurement": "polyreactivity (PSR sort gate)", "value": "low polyreactivity"}]}, {"sequence": "QVQLVESGGGLVQAGGSLRLSCAASGGIFGSYAMGWYRQAPGKERELVAAISWRGGSTYYADSVKGRFTISRDNAKNTVYLQMNSLKPEDTAVYYCAARYRWGYSTSYSYRFDYWGQGTQVTVSS", "values": [{"measurement": "polyreactivity (PSR sort gate)", "value": "high polyreactivity"}]}, {"sequence": "QVQLVESGGGLVQAGGSLRLSCAASGSTFGKYAMGWYRQAPGKERELVATITVSGGNTNYADSVKGRFTISRDNAKNTVYLQMNSLKPEDTAVYYCNAGGRYHAPSGDYWGQGTQVTVSS", "values": [{"measurement": "polyreactivity (PSR sort gate)", "value": "low polyreactivity"}]}, {"sequence": "QVQLVESGGGLFQAGGSLRLSCAPSGHIFFYYTMGWYRPAPGKERELVAGITIGGSTNYADSVKGRFTISRDNAKNTVYLQMNSLKPEDTAVYYCNVVKYVYIYSYWESYYWGQGTQVTVSS", "values": [{"measurement": "polyreactivity (PSR sort gate)", "value": "low polyreactivity"}]}, {"sequence": "QVQLVESGGGLVQAGGSLRLSCAASGRTFDVYAMGWYRQAPGKERELVAAITSGGSTYYADSVKGRFTISRDNAKNTVYLQMNSLKPEDTAVYYCAKASSATRYVQLRQDYDYWGQGTQVTVSS", "values": [{"measurement": "polyreactivity (PSR sort gate)", "value": "low polyreactivity"}]}, {"sequence": "QVQLVETAAGLVQAGGSLRLSCAASGSIYYSYAMGGYRQAPGKERELVAAITDSGDSTYYADSVKGRFTISRDNAKNTVYLQMNSLKPEDTAVYYCAAGFYPYYYWGLGTQVTVSS", "values": [{"measurement": "polyreactivity (PSR sort gate)", "value": "low polyreactivity"}]}, {"sequence": "QVQLVESGGGLVQAGGSLRLTCAAYGRIYINTMGWYRQPPGKERELVAAITWSGGNTYYADSVKGRFTISRDNAKNTVYLQMNSLKPEDTAVYYWAVGGYLRSVSYIRLGNYYWGQGTQVTVSS", "values": [{"measurement": "polyreactivity (PSR sort gate)", "value": "high polyreactivity"}]}, {"sequence": "QVQLVESGGGLVQEGCSLRLTCAASGSIFYYYAMGWYRQAPRKERELVATITWNGAGTFYADSVKGRFTISRDNAKNTVYLQMNSLKPEDTAVYYCAASWYGESGYDYWGQGTQVTVSS", "values": [{"measurement": "polyreactivity (PSR sort gate)", "value": "low polyreactivity"}]}, {"sequence": "QVQLVESGGALVQAGGSLRLSCAPSGLTFSDYAMGWYRQAPGKEREFVAGISSGGSTYYADSVKGRFTISRDNAKNTVYFQMKSLKPEDTAVYFCAGTRYNSWPIKFDYWGQGTQVTVSS", "values": [{"measurement": "polyreactivity (PSR sort gate)", "value": "high polyreactivity"}]}, {"sequence": "QVQLVESGGGLVQAVGSLSLICAASGSTFLKYTMGWYRQAPWKERELVAAISKSGGSTYYADSVKGRFTISRDNAKNTVYLQMNSLKPEDTAVYYCAKGRYWVSSYGYGYWVQGTQVTVSS", "values": [{"measurement": "polyreactivity (PSR sort gate)", "value": "high polyreactivity"}]}, {"sequence": "QVHLVESGGGFVQAGGSLRLSCAASGSIFWLYAMGWYRHAPGKERELVAAISWSTGGTYYADSVKGRFTISRDNAKNTVYLQMNSLKPEDTAVYYCNADTYDQYNYWGQGTQVTVSS", "values": [{"measurement": "polyreactivity (PSR sort gate)", "value": "low polyreactivity"}]}, {"sequence": "QVQLVESGGGLVQAGGSLRLSCAASGLSFSYYAMVWYRQAPGKERELVAAITSSGGNTYYADSVKGRFTISRDNANNTVYLQMNSLKPEDTAVYYCNDRRYLRGYGYGYWGQGTQVTVSS", "values": [{"measurement": "polyreactivity (PSR sort gate)", "value": "high polyreactivity"}]}, {"sequence": "QVQLVESGGGIVQAGGSLRLSCAASGFIFDAYAMGWYRQAPGKERELVAGISIGGRTIYADSVKGRFTISRDNAKNTVYLQMNSLKPEDTAVYYCAARNYRYYYGSYYRGPITNYEYWGQGTQVTVSS", "values": [{"measurement": "polyreactivity (PSR sort gate)", "value": "low polyreactivity"}]}, {"sequence": "QVQRVESGGGLVQAGGRLRLSFAASGFIFYAMGWYRQAPGKERELVAAITLSDGTTYYADSVKGRFTISRDNAKNTVYLQLNSLKPEDTAVYYCAAEYSVPYRGWDGYEYWGQGTQVTVSS", "values": [{"measurement": "polyreactivity (PSR sort gate)", "value": "low polyreactivity"}]}, {"sequence": "QVQLVESGGGLVQAGGSLRLSCAASGSTLRGNAMGWYRQAPGKEREFVAAISSSGGRTYYADSVKGRFTISRDNAKNTVYLQMNSLKPEDTAVYYCNADPYNYSRRYRLRKYGYWGQGTQVTVSS", "values": [{"measurement": "polyreactivity (PSR sort gate)", "value": "high polyreactivity"}]}, {"sequence": "QVQLLESGGGIVQAGGSHRLRCAASGSIFGTNAMCWYRQATGKERELVAAISLSTGSTYYADSVKGRFTISRDNAKNTVYLQMNSLKPEDTAVYYCAAYYVTPIYYYWGQGTQVTVSS", "values": [{"measurement": "polyreactivity (PSR sort gate)", "value": "low polyreactivity"}]}, {"sequence": "QVQLVESGGGLVQAGGSLRLSCAASGRTFGYNTMGWYRQAPGKERELVAVITQGVDITYYADSVKGRFTISRDNAKNTVYLQMNSLKPEDTAVYYCNTAGQDAEYDYWGQGTQVTVSS", "values": [{"measurement": "polyreactivity (PSR sort gate)", "value": "low polyreactivity"}]}, {"sequence": "QVQLVESGGGLVQAGCSLRLSCAASGRTFTLNAMGWYRQAPGKERELVADITYSDGDTYYADSVKGRFTISRDNAKNTVYLQMNSLIPEDTAGYYCAAGGYTDPGYEYWGQGTQVTVSS", "values": [{"measurement": "polyreactivity (PSR sort gate)", "value": "low polyreactivity"}]}, {"sequence": "QVHLVESGGGLVQSGGSLRLTCAASGRTFSQYAMGWYRQAPWKERDLVAAISWSGGSTYYADSVKGRFTFSRDNAKNTVYLEMNSLKPEDTAVYYCAAVGKGSARSSYQVLYDYWGQGTQVNVSS", "values": [{"measurement": "polyreactivity (PSR sort gate)", "value": "low polyreactivity"}]}, {"sequence": "QVQLVESGGGLVQAGGSLRLSCAASGSTFYANAMGWYRQAPGKERELVAAIDWSGATTYYADSVKGRFTISRDTAKNTVYLQMNSLKPEDTAVYYCAAYRYRPHVHRYYRYDYWGQGTQVTVSS", "values": [{"measurement": "polyreactivity (PSR sort gate)", "value": "high polyreactivity"}]}, {"sequence": "QVQLVESGGGLVQSGGSLRLSCAASGRTFKYNAMGWYRQAPGKERELVAVIRYSGGTTYYADSVKGRFTISRDNAKNTVYLQMNSLKPEDTAVYYCAADSWSRSVNYYYWGQGTQVTVSS", "values": [{"measurement": "polyreactivity (PSR sort gate)", "value": "low polyreactivity"}]}, {"sequence": "QVQLVESGGGLVQAGGSLRLSCAASGFTFPTYAMGWYRQAPGKERELVAAISTSGARTYYADSVKGRFTISRDNAKNTVYLQMNSLKPEDTAVYYCAVGSIYTIGFRKGYRFDYWGQGTQVTVSS", "values": [{"measurement": "polyreactivity (PSR sort gate)", "value": "high polyreactivity"}]}, {"sequence": "QVQLVESGGGLVQAGGSLRLSCAASGRIFFVYAMGWYRQAPGKERELVAGIRSSGGSTYYADSVKGRFTISRDNAKNTVYLQMNSLKPEDTAVYYCAARRVGYPSPYSTYGMYYWGQGTQVTVSS", "values": [{"measurement": "polyreactivity (PSR sort gate)", "value": "high polyreactivity"}]}, {"sequence": "QVQLVESGGGLVQAGGSLRLSCAASGFIFSVNTMGSYRQAPGKERELVAAISGSGGSTYYADSVKGRFTISRDNAKNTVYLQMNSLKPEDTAVYYCAARYTVTYDYWGQGTQVTVSS", "values": [{"measurement": "polyreactivity (PSR sort gate)", "value": "high polyreactivity"}]}, {"sequence": "QVQLVESGGGLVQAGGSLRLSCAASGFIFSYYAMGWYRQAPGKERELVAAISSGGSTYYADSVKGRFTISRDNAKNTVYLQMNSLKPEDTAVYYCAAAIWYIKLYFVRRTEHGYWGQGTQVTVSS", "values": [{"measurement": "polyreactivity (PSR sort gate)", "value": "low polyreactivity"}]}]}
